Reference: publication PMC9352680, “A comprehensive thermodynamic model for RNA binding by the Saccharomyces cerevisiae Pumilio protein PUF4”

T1: PUF4 RNA-binding domain (Saccharomyces cerevisiae, UniProt P25339 537-888)
T1 sequence: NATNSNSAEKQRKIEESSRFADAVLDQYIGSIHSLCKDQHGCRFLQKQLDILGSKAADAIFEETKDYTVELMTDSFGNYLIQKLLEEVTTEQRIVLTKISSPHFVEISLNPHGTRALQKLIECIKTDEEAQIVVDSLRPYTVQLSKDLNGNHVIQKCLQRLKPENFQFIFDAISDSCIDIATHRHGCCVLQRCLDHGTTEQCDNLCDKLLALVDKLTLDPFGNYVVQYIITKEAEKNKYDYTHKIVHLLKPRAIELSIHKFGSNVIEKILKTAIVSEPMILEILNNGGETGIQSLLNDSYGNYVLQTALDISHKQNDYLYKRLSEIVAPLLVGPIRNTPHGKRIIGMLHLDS


Biological target: T1, PUF4 RNA-binding domain
Assay: Mg; RNA-MaP; 20 mM Na-HEPES pH 7.4, 30 mM KOAc, 0.75 mM MgCl2, 0.1% Tween-20, 5% glycerol, 0.1 mg/mL BSA, 2 mM DTT; 25 C; 0.0125-409.6 nM protein
Conditions: tags: N-His6-TEV cleaved; C-SNAP kept, Cy3B-labelled; label: tethered on chip by stalled RNA polymerase

Binder	Kd [nM]
UCUCUUAGUAUAUAUACCUCUCUU (ssRNA) [Id_ii_S1_P3E.3_K3.2_C3.2_[C-2A]_[T-1G]_H3.2_A3.1_F3.1_T3.2_[T9C]_[A10C]]	954
UCUCUUAGUAUAUAUAUUUCUCUU (ssRNA) [Id_ii_S1_P3E.3_K3.2_C3.2_[C-2A]_[T-1G]_H3.2_A3.1_F3.1_T3.2_[A10T]]	452
UCUCUUAAUAUAUAUACGUCUCUU (ssRNA) [Id_ii_S1_P3E.3_K3.2_C3.2_[C-2A]_[T-1A]_H3.2_A3.1_F3.1_T3.2_[T9C]_[A10G]]	1980
UCUCUUUCUAUAUAUAUGUCUCUU (ssRNA) [Id_ii_S1_P3E.3_K3.2_C3.2_[C-2T]_[T-1C]_H3.2_A3.1_F3.1_T3.2_[A10G]]	1210
UCUCUUACUAUAUAUAAAUCUCUU (ssRNA) [Id_ii_S1_P3E.3_K3.2_C3.2_[C-2A]_[T-1C]_H3.2_A3.1_F3.1_T3.2_[T9A]]	1360
UCUCUUUCUAUAUAUAUUUCUCUU (ssRNA) [Id_ii_S1_P3E.3_K3.2_C3.2_[C-2T]_[T-1C]_H3.2_A3.1_F3.1_T3.2_[A10T]]	591
UCUCUUUUUAUAUAUAUGUCUCUU (ssRNA) [Id_ii_S1_P3E.3_K3.2_C3.2_[C-2T]_H3.2_A3.1_F3.1_T3.2_[A10G]]	1060
UCUCUUUGUAUUUUAUCUCUU (ssRNA) [Ic_S1_P4E.1_K4.1_C4.1_H4.1_A4.1_[A6T]_F4.1_T4.1]	2.46
UCUCUUUAUAUAUAUAGUUCUCUU (ssRNA) [Id_ii_S1_P3E.3_K3.2_C3.2_[C-2T]_[T-1A]_H3.2_A3.1_F3.1_T3.2_[T9G]_[A10T]]	140
UCUCUUUUUAUAUAUAUUUCUCUU (ssRNA) [Id_ii_S1_P3E.3_K3.2_C3.2_[C-2T]_H3.2_A3.1_F3.1_T3.2_[A10T]]	457
UCUCUUUUUAUAUAUAAGUCUCUU (ssRNA) [Id_ii_S1_P3E.3_K3.2_C3.2_[C-2T]_H3.2_A3.1_F3.1_T3.2_[T9A]_[A10G]]	1550
UCUCUUUUUAUAUAUAUCUCUCUU (ssRNA) [Id_ii_S1_P3E.3_K3.2_C3.2_[C-2T]_H3.2_A3.1_F3.1_T3.2_[A10C]]	759
UCUCUUAGUAUAUAUAUGUCUCUU (ssRNA) [Id_ii_S1_P3E.3_K3.2_C3.2_[C-2A]_[T-1G]_H3.2_A3.1_F3.1_T3.2_[A10G]]	502
UCUCUUAUUAUAUAUAGCUCUCUU (ssRNA) [Id_ii_S1_P3E.3_K3.2_C3.2_[C-2A]_H3.2_A3.1_F3.1_T3.2_[T9G]_[A10C]]	1310
UCUCUUUAUAUAUAUAGCUCUCUU (ssRNA) [Id_ii_S1_P3E.3_K3.2_C3.2_[C-2T]_[T-1A]_H3.2_A3.1_F3.1_T3.2_[T9G]_[A10C]]	148
UCUCUUCGUAUUUUAUCUCUU (ssRNA) [Ib_S1_P4E.1_K4.1_C4.1_H4.1_[T1C]_A4.1_[A6T]_F4.1_T4.1]	591
UCUCUUAGUAUAUAUAGCUCUCUU (ssRNA) [Id_ii_S1_P3E.3_K3.2_C3.2_[C-2A]_[T-1G]_H3.2_A3.1_F3.1_T3.2_[T9G]_[A10C]]	494
UCUCUUUUUAUAUAUACUUCUCUU (ssRNA) [Id_ii_S1_P3E.3_K3.2_C3.2_[C-2T]_H3.2_A3.1_F3.1_T3.2_[T9C]_[A10T]]	708
UCUCUUAGUAUAUAUAGUUCUCUU (ssRNA) [Id_ii_S1_P3E.3_K3.2_C3.2_[C-2A]_[T-1G]_H3.2_A3.1_F3.1_T3.2_[T9G]_[A10T]]	156
UCUCUUAGUAUGUUAUCUCUU (ssRNA) [Ib_S1_P4E.1_K4.1_C4.1_H4.1_[T1A]_A4.1_[A6G]_F4.1_T4.1]	1080
UCUCUUUCUAUAUAUAAUUCUCUU (ssRNA) [Id_ii_S1_P3E.3_K3.2_C3.2_[C-2T]_[T-1C]_H3.2_A3.1_F3.1_T3.2_[T9A]_[A10T]]	1010

Binder	Kd [nM]
UCUCUUACUAUAUAUACCUCUCUU (ssRNA) [Id_ii_S1_P3E.3_K3.2_C3.2_[C-2A]_[T-1C]_H3.2_A3.1_F3.1_T3.2_[T9C]_[A10C]]	848
UCUCUUUCUAUAUAUAACUCUCUU (ssRNA) [Id_ii_S1_P3E.3_K3.2_C3.2_[C-2T]_[T-1C]_H3.2_A3.1_F3.1_T3.2_[T9A]_[A10C]]	960
UCUCUUUUUAUAUAUACCUCUCUU (ssRNA) [Id_ii_S1_P3E.3_K3.2_C3.2_[C-2T]_H3.2_A3.1_F3.1_T3.2_[T9C]_[A10C]]	1430
UCUCUUUCUAUAUAUAGCUCUCUU (ssRNA) [Id_ii_S1_P3E.3_K3.2_C3.2_[C-2T]_[T-1C]_H3.2_A3.1_F3.1_T3.2_[T9G]_[A10C]]	620
UCUCUUAGUAUAAUAUCUCUU (ssRNA) [Ib_S1_P4E.1_K4.1_C4.1_H4.1_[T1A]_A4.1_[T7A]_F4.1_T4.1]	126
UCUCUUUAUAUAUAUAAUUCUCUU (ssRNA) [Id_ii_S1_P3E.3_K3.2_C3.2_[C-2T]_[T-1A]_H3.2_A3.1_F3.1_T3.2_[T9A]_[A10T]]	642
UCUCUUAAUAUAUAUAUUUCUCUU (ssRNA) [Id_ii_S1_P3E.3_K3.2_C3.2_[C-2A]_[T-1A]_H3.2_A3.1_F3.1_T3.2_[A10T]]	972
UCUCUUACUAUAUAUAUGUCUCUU (ssRNA) [Id_ii_S1_P3E.3_K3.2_C3.2_[C-2A]_[T-1C]_H3.2_A3.1_F3.1_T3.2_[A10G]]	968
UCUCUUUUUAUAUAUAUAUCUCUU (ssRNA) [Id_ii_S1_P3E.3_K3.2_C3.2_[C-2T]_H3.2_A3.1_F3.1_T3.2]	510
UCUCUUAAUAUAUAUAUGUCUCUU (ssRNA) [Id_ii_S1_P3E.3_K3.2_C3.2_[C-2A]_[T-1A]_H3.2_A3.1_F3.1_T3.2_[A10G]]	698
UCUCUUAGUAUAUAUAUCUCUCUU (ssRNA) [Id_ii_S1_P3E.3_K3.2_C3.2_[C-2A]_[T-1G]_H3.2_A3.1_F3.1_T3.2_[A10C]]	652
UCUCUUUAUAUAUAUACAUCUCUU (ssRNA) [Id_ii_S1_P3E.3_K3.2_C3.2_[C-2T]_[T-1A]_H3.2_A3.1_F3.1_T3.2_[T9C]]	384
UCUCUUUUUAUAUAUAGCUCUCUU (ssRNA) [Id_ii_S1_P3E.3_K3.2_C3.2_[C-2T]_H3.2_A3.1_F3.1_T3.2_[T9G]_[A10C]]	490
UCUCUUAAUAUAUAUACUUCUCUU (ssRNA) [Id_ii_S1_P3E.3_K3.2_C3.2_[C-2A]_[T-1A]_H3.2_A3.1_F3.1_T3.2_[T9C]_[A10T]]	344
UCUCUUUUUAUAUAUACAUCUCUU (ssRNA) [Id_ii_S1_P3E.3_K3.2_C3.2_[C-2T]_H3.2_A3.1_F3.1_T3.2_[T9C]]	1210
UCUCUUAGUAUUUUAUCUCUU (ssRNA) [Ib_S1_P4E.1_K4.1_C4.1_H4.1_[T1A]_A4.1_[A6T]_F4.1_T4.1]	798
UCUCUUUAUAUAUAUACGUCUCUU (ssRNA) [Id_ii_S1_P3E.3_K3.2_C3.2_[C-2T]_[T-1A]_H3.2_A3.1_F3.1_T3.2_[T9C]_[A10G]]	503
UCUCUUUAUAUAUAUACUUCUCUU (ssRNA) [Id_ii_S1_P3E.3_K3.2_C3.2_[C-2T]_[T-1A]_H3.2_A3.1_F3.1_T3.2_[T9C]_[A10T]]	172
UCUCUUUAUAUAUAUAUGUCUCUU (ssRNA) [Id_ii_S1_P3E.3_K3.2_C3.2_[C-2T]_[T-1A]_H3.2_A3.1_F3.1_T3.2_[A10G]]	427
UCUCUUUCUAUAUAUACCUCUCUU (ssRNA) [Id_ii_S1_P3E.3_K3.2_C3.2_[C-2T]_[T-1C]_H3.2_A3.1_F3.1_T3.2_[T9C]_[A10C]]	1390
UCUCUUUUUAUAUAUAGUUCUCUU (ssRNA) [Id_ii_S1_P3E.3_K3.2_C3.2_[C-2T]_H3.2_A3.1_F3.1_T3.2_[T9G]_[A10T]]	272

Binder	Kd [nM]
UCUCUUAAUAUAUAUAGCUCUCUU (ssRNA) [Id_ii_S1_P3E.3_K3.2_C3.2_[C-2A]_[T-1A]_H3.2_A3.1_F3.1_T3.2_[T9G]_[A10C]]	633
UCUCUUACUAUAUAUAUCUCUCUU (ssRNA) [Id_ii_S1_P3E.3_K3.2_C3.2_[C-2A]_[T-1C]_H3.2_A3.1_F3.1_T3.2_[A10C]]	886
UCUCUUUCUAUAUAUACAUCUCUU (ssRNA) [Id_ii_S1_P3E.3_K3.2_C3.2_[C-2T]_[T-1C]_H3.2_A3.1_F3.1_T3.2_[T9C]]	1030
UCUCUUAAUAUAUAUAGUUCUCUU (ssRNA) [Id_ii_S1_P3E.3_K3.2_C3.2_[C-2A]_[T-1A]_H3.2_A3.1_F3.1_T3.2_[T9G]_[A10T]]	458
UCUCUUAAUAUAUAUACAUCUCUU (ssRNA) [Id_ii_S1_P3E.3_K3.2_C3.2_[C-2A]_[T-1A]_H3.2_A3.1_F3.1_T3.2_[T9C]]	886
UCUCUUCGUAUAAUAUCUCUU (ssRNA) [Ib_S1_P4E.1_K4.1_C4.1_H4.1_[T1C]_A4.1_[T7A]_F4.1_T4.1]	131
UCUCUUAGUAUAUAUAAAUCUCUU (ssRNA) [Id_ii_S1_P3E.3_K3.2_C3.2_[C-2A]_[T-1G]_H3.2_A3.1_F3.1_T3.2_[T9A]]	877
UCUCUUUCUAUAUAUACGUCUCUU (ssRNA) [Id_ii_S1_P3E.3_K3.2_C3.2_[C-2T]_[T-1C]_H3.2_A3.1_F3.1_T3.2_[T9C]_[A10G]]	1450
UCUCUUUAUAUAUAUAUCUCUCUU (ssRNA) [Id_ii_S1_P3E.3_K3.2_C3.2_[C-2T]_[T-1A]_H3.2_A3.1_F3.1_T3.2_[A10C]]	370
UCUCUUUUUAUAUAUAAUUCUCUU (ssRNA) [Id_ii_S1_P3E.3_K3.2_C3.2_[C-2T]_H3.2_A3.1_F3.1_T3.2_[T9A]_[A10T]]	968
UCUCUUAAUAUAUAUACCUCUCUU (ssRNA) [Id_ii_S1_P3E.3_K3.2_C3.2_[C-2A]_[T-1A]_H3.2_A3.1_F3.1_T3.2_[T9C]_[A10C]]	2250
UCUCUUACUAUAUAUACAUCUCUU (ssRNA) [Id_ii_S1_P3E.3_K3.2_C3.2_[C-2A]_[T-1C]_H3.2_A3.1_F3.1_T3.2_[T9C]]	1290
UCUCUUUGUAUAUAUAUUUCUCUU (ssRNA) [Id_ii_S1_P3E.3_K3.2_C3.2_[C-2T]_[T-1G]_H3.2_A3.1_F3.1_T3.2_[A10T]]	5
UCUCUUUUUAUAUAUACGUCUCUU (ssRNA) [Id_ii_S1_P3E.3_K3.2_C3.2_[C-2T]_H3.2_A3.1_F3.1_T3.2_[T9C]_[A10G]]	1560
UCUCUUUCUAUAUAUAUCUCUCUU (ssRNA) [Id_ii_S1_P3E.3_K3.2_C3.2_[C-2T]_[T-1C]_H3.2_A3.1_F3.1_T3.2_[A10C]]	602
UCUCUUUCUAUAUAUAGUUCUCUU (ssRNA) [Id_ii_S1_P3E.3_K3.2_C3.2_[C-2T]_[T-1C]_H3.2_A3.1_F3.1_T3.2_[T9G]_[A10T]]	771
UCUCUUACUAUAUAUACUUCUCUU (ssRNA) [Id_ii_S1_P3E.3_K3.2_C3.2_[C-2A]_[T-1C]_H3.2_A3.1_F3.1_T3.2_[T9C]_[A10T]]	918
UCUCUUUAUAUAUAUAUUUCUCUU (ssRNA) [Id_ii_S1_P3E.3_K3.2_C3.2_[C-2T]_[T-1A]_H3.2_A3.1_F3.1_T3.2_[A10T]]	329
UCUCUUAAUAUAUAUAAAUCUCUU (ssRNA) [Id_ii_S1_P3E.3_K3.2_C3.2_[C-2A]_[T-1A]_H3.2_A3.1_F3.1_T3.2_[T9A]]	1290
UCUCUUAUUAUAUAUAGUUCUCUU (ssRNA) [Id_ii_S1_P3E.3_K3.2_C3.2_[C-2A]_H3.2_A3.1_F3.1_T3.2_[T9G]_[A10T]]	544
UCUCUUACUAUAUAUAGCUCUCUU (ssRNA) [Id_ii_S1_P3E.3_K3.2_C3.2_[C-2A]_[T-1C]_H3.2_A3.1_F3.1_T3.2_[T9G]_[A10C]]	2200
